Source: patent US20250326816A1 (KOREA UNIVERSITY RESEARCH AND BUSINESS FOUNDATION, published 2025)

T1: wild-type ICOS-L (Homo sapiens (Human), UniProt O75144 19-256)
T1 construct: also called wild-type Inducible Co-Stimulator-ligand
T1 sequence: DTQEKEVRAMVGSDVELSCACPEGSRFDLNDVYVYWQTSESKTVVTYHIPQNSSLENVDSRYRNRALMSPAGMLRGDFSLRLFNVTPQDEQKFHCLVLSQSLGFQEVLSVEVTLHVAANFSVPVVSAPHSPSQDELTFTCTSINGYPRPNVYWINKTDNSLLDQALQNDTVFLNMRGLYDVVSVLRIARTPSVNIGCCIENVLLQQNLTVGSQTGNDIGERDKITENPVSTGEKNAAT

T2: ATZ (L)-Y8_H57N: ICOS-L Y8_H57N variant fused to the light chain of Atezolizumab with LALAPG mutation in the … (Homo sapiens (Human), UniProt O75144 19-256)
T2 construct: Antibody-ligand fusion; ICOS-L at the C-terminal of the light chain; not shown: Atezolizumab light chain (VL plus constant region), atezolizumab heavy chain with LALAPG, and any linker
T2 sequence: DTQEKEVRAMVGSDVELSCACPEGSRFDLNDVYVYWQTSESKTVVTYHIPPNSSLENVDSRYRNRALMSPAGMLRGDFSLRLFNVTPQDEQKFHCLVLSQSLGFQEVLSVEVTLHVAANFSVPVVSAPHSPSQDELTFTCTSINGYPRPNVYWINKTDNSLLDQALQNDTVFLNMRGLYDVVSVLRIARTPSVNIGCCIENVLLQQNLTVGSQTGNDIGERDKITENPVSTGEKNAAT

T3: ATZ (H)-A184: ICOS-L A184 variant fused to the heavy chain of Atezolizumab with LALAPG mutation in the Fc … (Homo sapiens (Human), UniProt O75144 19-256)
T3 construct: Antibody-ligand fusion; ICOS-L at the C-terminal of the heavy chain; not shown: Atezolizumab heavy chain (VH plus IgG1 constant region with LALAPG), atezolizumab light chain, and any linker
T3 chain: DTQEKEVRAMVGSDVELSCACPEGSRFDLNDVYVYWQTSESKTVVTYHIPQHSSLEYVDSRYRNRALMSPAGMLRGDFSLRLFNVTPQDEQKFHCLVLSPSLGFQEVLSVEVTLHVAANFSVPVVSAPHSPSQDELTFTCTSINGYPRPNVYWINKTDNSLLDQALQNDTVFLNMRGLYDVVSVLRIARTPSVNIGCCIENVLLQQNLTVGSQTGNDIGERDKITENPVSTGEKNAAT

T4: ICOS-L variant Y8 fused to antibody Fc domain (LALAPG) (human, UniProt O75144 19-256)
T4 construct: also called Y8-Fc; not shown: human IgG1 Fc with L234A/L235A/P329G C-terminal to ICOS-L
T4 chain: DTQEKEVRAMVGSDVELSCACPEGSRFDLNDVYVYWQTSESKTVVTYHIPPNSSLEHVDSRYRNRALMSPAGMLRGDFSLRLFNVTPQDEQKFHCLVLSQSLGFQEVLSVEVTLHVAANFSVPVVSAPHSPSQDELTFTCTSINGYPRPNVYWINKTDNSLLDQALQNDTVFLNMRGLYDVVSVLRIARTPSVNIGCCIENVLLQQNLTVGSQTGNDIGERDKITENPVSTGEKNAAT

B1: Dimeric human ICOS (ICOS-Fc) (Fc fusion, UniProt Q9Y6W8 21-140, looked up)
chain: EINGSANYEMFIFHNGGVQILCKYPDIVQQFKMQLLKGGQILCDLTKTKGSGNTVSIKSLKFCHSQLSNNSVSFFLYNLDHSHANYYFCNLSIFDPPPFKVTLTGGYLHIYESQLCCQLK
notes: range 21-140; Fc at the C-terminus of ICOS to induce dimerization; Labeled with Alexa488 when used as probe in the flow cytometry on yeast; also called ICOS-Fc dimer protein; ICOS dimer protein; not shown: GS linker of glycine and serine; Fc region (domain) of human IgG antibody
B2: ICOS-L variant Y8_H57N (ligand)
chain: DTQEKEVRAMVGSDVELSCACPEGSRFDLNDVYVYWQTSESKTVVTYHIPPNSSLENVDSRYRNRALMSPAGMLRGDFSLRLFNVTPQDEQKFHCLVLSQSLGFQEVLSVEVTLHVAANFSVPVVSAPHSPSQDELTFTCTSINGYPRPNVYWINKTDNSLLDQALQNDTVFLNMRGLYDVVSVLRIARTPSVNIGCCIENVLLQQNLTVGSQTGNDIGERDKITENPVSTGEKNAAT
notes: H57 of Y8 put back to N
B3: ICOS-L variant Y8_P51Q (ligand)
chain: DTQEKEVRAMVGSDVELSCACPEGSRFDLNDVYVYWQTSESKTVVTYHIPQNSSLEHVDSRYRNRALMSPAGMLRGDFSLRLFNVTPQDEQKFHCLVLSQSLGFQEVLSVEVTLHVAANFSVPVVSAPHSPSQDELTFTCTSINGYPRPNVYWINKTDNSLLDQALQNDTVFLNMRGLYDVVSVLRIARTPSVNIGCCIENVLLQQNLTVGSQTGNDIGERDKITENPVSTGEKNAAT
notes: P51 of Y8 put back to Q; keeps N57H only

How the values were obtained:
[1] = molecular target: B1; assay: ELISA, ICOS-Fc coated at 4 ug/ml, ICOS-L variant titrated, anti-His-HRP (x axis printed as PD-L1 CO…ON (nM))
Procedure: (§1) After washing four times, 50 μl of an anti-His-HRP conjugate was added and reacted at room temperature for 1 hour, and then washed four times. Thereafter, 50 μl of a 1-Step Ultra TMB-ELISA substrate solution (Thermo Fisher Scientific, 34028) was added to develop color, and then added with 50 μl each of 2 M H₂SO₄ to terminate the reaction, and then analyzed using an Epoch microplate spectrophotometer (BioTek).

[2] = molecular target: B1; assay: bio-layer interferometry (Octet R8); fold gain of KD over wild-type ICOS-L as printed in the table
[3] = molecular target: B1; assay: bio-layer interferometry (Octet R8), ICOS-Fc captured on Protein A biosensor, ICOS-L variant in solution; the table prints no units
ICOS-L variant Y8_H57N = molecular target: B2; assay: as above
ICOS-L variant Y8_P51Q = molecular target: B3; assay: as above
wild-type ICOS-L = molecular target: T1, wild-type ICOS-L; assay: as above
[4] = molecular target: B1; assay: ELISA, ICOS-Fc coated at 4 ug/ml, ICOS-L variant titrated, anti-His-HRP
Procedure: as §1

[5] = molecular target: T2, ATZ (L)-Y8_H57N: ICOS-L Y8_H57N variant …; assay: sandwich ELISA, PD-L1-Fc coated at 40 nM, atezolizumab fusion captured at 200 nM, His-tagged ICOS monomer titrated, anti-His-HRP
Procedure: (§2) Specifically, 50 μl of 40 nM PD-L1-Fc in 0.05 M Na₂CO₃ (pH 9.6) was dispensed into a Flat Bottom Polystyrene High Bind 96-well microplate (Costar), immobilized at 4° C. for 16 hours, and then blocked with 100 μl of PBS (pH 7.4) containing 0.5% bovine serum albumin (BSA) (Gibco) for 2 hours at room temperature. […] After washing four times, 50 μl of an anti-His-HRP conjugate was added and reacted at room temperature for 1 hour, and then washed four times. Thereafter, 50 μl of a 1-Step Ultra TMB-ELISA substrate solution (Thermo Fisher Scientific, 34028) was added to develop color, and then added with 50 μl each of 2 M H₂SO₄ to terminate the reaction, and then analyzed using an Epoch microplate spectrophotometer (BioTek).

[6] = molecular target: T3, ATZ (H)-A184: ICOS-L A184 variant fused …; assay: as above
Procedure: as §2

[7] = molecular target: T4, ICOS-L variant Y8 fused to antibody Fc …; assay: ELISA, ICOS-L-Fc coated at 4 ug/ml, His-tagged ICOS monomer titrated, anti-His-HRP
Procedure: as §1

| EC50 (read off the curve) [1] [nM] | INCREASED MULTIPLE [2] | Kd [3] [nM] | EC50 (read off the curve) [4] [nM] | Binder | also measured |
| --- | --- | --- | --- | --- | --- |
| ~20 | 4.89 | 23.1 |  | A184 (ligand, Soluble form without Fc; the Fc and atezolizumab fusions are m12, m15 and m18; also called control A184) single chain: DTQEKEVRAMVGSDVELSCACPEGSRFDLNDVYVYWQTSESKTVVTYHIPQHSSLEYVDSRYRNRALMSPAGMLRGDFSLRLFNVTPQDEQKFHCLVLSPSLGFQEVLSVEVTLHVAANFSVPVVSAPHSPSQDELTFTCTSINGYPRPNVYWINKTDNSLLDQALQNDTVFLNMRGLYDVVSVLRIARTPSVNIGCCIENVLLQQNLTVGSQTGNDIGERDKITENPVSTGEKNAAT |  |
|  |  |  |  | B1 | Kd (ICOS-L variant Y8_H57N): 4.75 nM; Kd (ICOS-L variant Y8_P51Q): 23.3 nM; Kd (wild-type ICOS-L): 113 nM |
|  | 23.8 |  | ~10 | B2 |  |
| ~6 | 95 | 1.19 | ~4 | ICOS-L variant Y8 (ligand) DTQEKEVRAMVGSDVELSCACPEGSRFDLNDVYVYWQTSESKTVVTYHIPPNSSLEHVDSRYRNRALMSPAGMLRGDFSLRLFNVTPQDEQKFHCLVLSQSLGFQEVLSVEVTLHVAANFSVPVVSAPHSPSQDELTFTCTSINGYPRPNVYWINKTDNSLLDQALQNDTVFLNMRGLYDVVSVLRIARTPSVNIGCCIENVLLQQNLTVGSQTGNDIGERDKITENPVSTGEKNAAT |  |
|  | 4.85 |  |  | B3 |  |
|  |  |  |  | ICOS monomer protein (ICOS E21-H129) (receptor, human, UniProt Q9Y6W8 21-129, looked up, range 21-129; also called wild-type ICOS) EINGSANYEMFIFHNGGVQILCKYPDIVQQFKMQLLKGGQILCDLTKTKGSGNTVSIKSLKFCHSQLSNNSVSFFLYNLDHSHANYYFCNLSIFDPPPFKVTLTGGYLH | EC50 (read off the curve) [5]: ~9 nM; EC50 (read off the curve) [6]: ~5 nM; EC50 (read off the curve) [7]: ~4 nM |
